{
  "source": "paper PMC12167799",
  "about": "“The role of human Shu complex in ATP-dependent regulation of RAD51 filaments during homologous recombination–associated DNA damage response” (The Journal of Biological Chemistry, 2025)",
  "biological_target": "human RAD51 (human) (UniProt Q06609)",
  "sequence (Q06609 whole entry)": "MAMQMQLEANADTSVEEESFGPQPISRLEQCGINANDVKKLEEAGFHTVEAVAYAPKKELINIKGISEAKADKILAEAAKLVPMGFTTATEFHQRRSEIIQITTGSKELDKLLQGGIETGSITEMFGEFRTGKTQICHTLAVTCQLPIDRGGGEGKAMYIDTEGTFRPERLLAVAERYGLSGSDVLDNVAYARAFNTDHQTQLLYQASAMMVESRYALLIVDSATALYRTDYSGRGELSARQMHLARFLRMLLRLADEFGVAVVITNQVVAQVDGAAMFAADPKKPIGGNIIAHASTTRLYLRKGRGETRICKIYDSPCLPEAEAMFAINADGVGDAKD",
  "data": [
    {"substance": "human Shu complex hSWS1-SWSAP1, wildtype (from UniProt Q19AV6 1-140; Q6NVH7 1-250)", "values": [
      {"measurement": "fluorescence intensity of 5′-6-FAM-labeled RAD51-ssDNA filaments (1 μM RAD51, 15 nM poly-dT39, 2 mM ATP) after addition of 50 nM hSWS1-SWSAP1, 10-s intervals over 60 s", "value": 40, "unit": "%"}
    ]}
  ]
}
